This passage reports Kd, koff and kon results from patent US20250236682A1 (CENTENAIRE BIOSCIENCES, published 2025).

Test [1] has as its target T1, neonatal Fc receptor (FcRn) (Homo sapiens (Human), UniProt P55899 24-297; P61769 21-119).
T1 construct: analyte in solution at pH 6.0; copies: 1 + 1
The experiment in a line: BLI, antibody on FAB2G sensor, FcRn analyte, pH 6.0. For orientation: In BLI a coated tip is dipped into the sample, and binding shifts an interference pattern.

Test [2] addresses T2, human HER2 recombinant protein (R&D systems, 1129-ER) (human, UniProt P04626 23-652).
T2 construct: extracellular domain; also called HER2 antigen; HER2 extracellular domain (ECD)
The experiment in a line: BLI, HER2 on HIS1K sensor.

For test [3], the target named is T3, human FcγRIIIA (176V isoform, R&D systems, 4325-FC) (human, UniProt P08637 17-208).
T3 construct: bought; also called FcγRIIIA(CD16A, 176V); Fcγ receptor 3A (176V isoform)
The test can be described thus: BLI, His-FcγRIIIA on HIS1K sensor.

Test [4] concerns the target T2, human HER2 recombinant protein (R&D …). The experiment in a line: BLI, HER2 on HIS1K sensor, 1 to 32 nM antibody.
Test [5] deals with T4, human FcγRI (R&D systems, 1257-FC) (human, UniProt P12314 16-288).
T4 construct: bought; also called FcγRI(CD64); Fcγ receptor 1
The experiment in a line: BLI, His-FcγRI on HIS1K sensor.

Positions count from the first letter of the chain named. Names may count otherwise.

T4 sequence (P12314 16-288 limits assumed): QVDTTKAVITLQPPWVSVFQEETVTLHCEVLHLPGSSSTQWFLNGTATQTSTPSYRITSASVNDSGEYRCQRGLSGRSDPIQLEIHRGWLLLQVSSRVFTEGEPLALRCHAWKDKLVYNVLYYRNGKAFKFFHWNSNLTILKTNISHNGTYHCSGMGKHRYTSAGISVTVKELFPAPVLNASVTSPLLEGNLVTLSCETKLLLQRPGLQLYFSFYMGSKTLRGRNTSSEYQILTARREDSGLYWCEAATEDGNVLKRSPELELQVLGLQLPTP
T3 sequence (P08637 17-208 F176V limits assumed): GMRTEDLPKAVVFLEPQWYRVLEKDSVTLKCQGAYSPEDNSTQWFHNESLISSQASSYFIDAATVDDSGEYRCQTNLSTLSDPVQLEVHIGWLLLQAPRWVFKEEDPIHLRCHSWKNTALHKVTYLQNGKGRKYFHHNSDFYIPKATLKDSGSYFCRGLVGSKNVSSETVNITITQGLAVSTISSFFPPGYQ
T1 sequence (P55899 24-297 limits assumed, form in doubt, chain 1 of 2): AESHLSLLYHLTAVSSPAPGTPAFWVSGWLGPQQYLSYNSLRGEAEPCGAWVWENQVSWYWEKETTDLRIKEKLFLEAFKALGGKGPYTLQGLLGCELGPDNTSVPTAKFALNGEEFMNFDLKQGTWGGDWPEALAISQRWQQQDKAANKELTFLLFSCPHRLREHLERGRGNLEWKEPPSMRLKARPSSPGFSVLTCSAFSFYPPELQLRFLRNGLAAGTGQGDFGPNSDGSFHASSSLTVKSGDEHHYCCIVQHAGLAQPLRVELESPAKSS
T1 sequence (P61769 21-119 limits assumed, form in doubt, chain 2 of 2): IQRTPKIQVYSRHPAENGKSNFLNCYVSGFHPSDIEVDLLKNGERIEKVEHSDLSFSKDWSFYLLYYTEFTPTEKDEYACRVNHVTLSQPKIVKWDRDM

B1: pertuzumab (antibody, V domains shown)
VH: EVQLVESGGGLVQPGGSLRLSCAASGFTFTDYTMDWVRQAPGKGLEWVADVNPNSGGSIYNQRFKGRFTLSVDRSKNTLYLQMNSLRAEDTAVYYCARNLGPSFYFDYWGQGTLVTVSS
VL: DIQMTQSPSSLSASVGDRVTITCKASQDVSIGVAWYQQKPGKAPKLLIYSASYRYTGVPSRFSGSGSGTDFTLTISSLQPEDFATYYCQQYYIYPYTFGQGTKVEIK
A word on the Kd: it is the free concentration of one partner at which half of the binding sites on the other are occupied at equilibrium, for simple one-to-one binding. As a reminder, the koff is a measure of how fast the partners let go of each other. A word on the kon: it is the rate constant with which the complex forms. In test [1], B1 yielded a Kd of 322 nM, a koff of 0.0154 s⁻¹ and an on-rate constant (kon) of 47900 M⁻¹ s⁻¹.

B2: H01Fv1 (antibody, human IgG1)
heavy: not shown
light: not shown
chain: DKTHTCPPCPAPELLGGPSVFLFPPKPKDTLMISRTPEVTCVVVDVSHEDPEVKFNWYVDGVEVHNAKTKPREEQYNSTYRVVSVLTVLHQDWLNGKEYKCKVSNKALPAPIEKTISKAKGQPREPQVCTLPPSREEMTKNQVSLSCAVKGFYPSDIAVEWESNGQPENNYKTTPPVLDSDGSFFLVSKLTVDKSRWQQGNVFSCSVMHEALHNRFTQKSLSLSPGK
notes: also called Fv-(Fc)2, VH G44C / VL Q100C
With B2, in test [2], the dissociation constant (Kd) turned out to be 0.244 nM, the off-rate constant (koff) came out at 5.11e-05 s⁻¹ and the kon came to 210000 M⁻¹ s⁻¹.

B3: H01Fv7 (antibody, human IgG1, kappa)
heavy: not shown
light: not shown
chain: B2 chain
notes: also called Fv-(Fc)2, VH G44C, Q105C, F126C / VL Q100C, A43C, S121C
For B3, in test [2], the equilibrium dissociation constant (Kd) came out at 0.279 nM, the koff was found to be 7.7e-05 s⁻¹ and the kon came out at 276000 M⁻¹ s⁻¹.

B4: H01Fv4 (antibody, human IgG1)
heavy: not shown
light: not shown
chain: B2 chain
notes: also called Fv-(Fc)2, VH G44C, Q105C / VL Q100C, A43C
On to B4, for which, in test [2], the Kd stood at 0.326 nM, the koff was 7.71e-05 s⁻¹ and the kon came out at 237000 M⁻¹ s⁻¹.

B5: P01DE4 (antibody, human IgG1, kappa)
heavy: not shown
light: not shown
chain: B2 chain with S19D, I112E, R215H, F216Y
notes: monovalent Fab-(Fc)2; also called P01 with S239D and I332E in all Fc chains
As to B5, in test [3], binding was characterised by a dissociation constant (Kd) of 0.33 nM, the koff was determined as 0.000159 s⁻¹ and the kon worked out at 478000 M⁻¹ s⁻¹. Also, in test [4], the Kd was determined as 0.224 nM, the koff is 5.51e-05 s⁻¹ and the kon was found to be 246000 M⁻¹ s⁻¹. For the same molecule, in test [5], the Kd was found to be 0.038 nM, the koff stood at 2.85e-05 s⁻¹ and the kon was 748000 M⁻¹ s⁻¹.

B6: H01Fv5 (antibody, human IgG1, kappa)
heavy: not shown
light: not shown
chain: B2 chain
notes: also called Fv-(Fc)2, VH G44C, F122C / VL Q100C, S121C
For B6, in test [2], the Kd was found to be 0.393 nM, the koff was determined as 0.000107 s⁻¹ and the kon came out at 273000 M⁻¹ s⁻¹.

B7: H01Fv6 (antibody, human IgG1, kappa)
heavy: not shown
light: not shown
chain: B2 chain
notes: also called Fv-(Fc)2, VH Q105C, F126C / VL A43C, S121C
For B7, in test [2], the dissociation constant (Kd) turned out to be 0.0487 nM, the koff was 6.61e-06 s⁻¹ and the kon amounted to 136000 M⁻¹ s⁻¹.

B8: H01DE4 (antibody, human IgG1, kappa)
heavy: not shown
light: not shown
chain: B2 chain with S19D, I112E, R215H, F216Y
notes: monovalent Fab-(Fc)2; also called H01 with S239D and I332E in all Fc chains
For the molecule B8, in test [3], the affinity, expressed as Kd, was 0.1 nM; the off-rate constant (koff) is 5.51e-05 s⁻¹; the kon turned out to be 526000 M⁻¹ s⁻¹. For the same molecule, in test [4], the Kd is 0.145 nM, the koff worked out at 3.73e-05 s⁻¹ and the kon came out at 258000 M⁻¹ s⁻¹. In test [5], this molecule displayed a Kd of 0.036 nM, a koff of 3.06e-05 s⁻¹ and a kon of 852000 M⁻¹ s⁻¹.

B9: H01Fv2 (antibody, human IgG1)
heavy: not shown
light: not shown
chain: B2 chain
notes: also called Fv-(Fc)2, VH Q105C / VL A43C
With B9, in test [2], the Kd came to 0.324 nM, the koff came to 3.78e-05 s⁻¹ and the on-rate (kon) was found to be 117000 M⁻¹ s⁻¹.
